From US20180214568A1
Values belong to the binder of their own block, whether it stands above or below them.

Assays:
[1] = molecular target: CD56 on the surface of human neuroblastoma cells (human) (UniProt P13591); assay: cell-based or functional assay
[2] = molecular target: CD56 on the surface of human neuroblastoma cells (human) (UniProt P13591)
[3] = molecular target: human CD56 whole ectodomain (residues 20-720) (human) (UniProt P13591); assay: BIACORE, Fab on immobilised CD56 ectodomain
[4] = molecular target: human CD56 whole ectodomain (residues 20-720) (human) (UniProt P13591); assay: SPR (BIACORE X100), CD56 ectodomain immobilized, Fab in flow, 1:1 model

percent reduction in CD56 cell surface expression, Kelly cells, 50 nM m906 overnight [1]: 93%
percent reduction in CD56 cell surface expression, SKNAS cells, 50 nM m906 overnight [1]: 21%
percent reduction in CD56 cell surface expression, other neuroblastoma cell lines, 50 nM m906 overnight [1]: > 60%
B1: m906 IgG1 (antibody, V domains shown)
VH: EVQLVQSGAEVKKPGSSVKVSCKASGGTFTGYYMHWVRQAPGQGLEWMGWINPNSGGTNYAQKFQGRVTMTRDTSISTAYMELSRLRSDDTAVYYCARDLSSGYSGYFDYWGQGTLVTVSS
VL: DVVMTQSPLSLPVTPGEPASISCRSSQSLLHSNGYNFLDWYLQKPGQSPQLLIYLGSNRASGVPDRFSGSGSGTDFTLKISRVEADDVGVYYCMQSLQTPWTFGHGTKVEIKR

B2: m906PBD (antibody, V domains shown)
VH: EVQLVQSGAEVKKPGSSVKVSCKASGGTFTGYYMHWVRQAPGQGLEWMGWINPNSGGTNYAQKFQGRVTMTRDTSISTAYMELSRLRSDDTAVYYCARDLSSGYSGYFDYWGQGTLVTVSS
VL: DVVMTQSPLSLPVTPGEPASISCRSSQSLLHSNGYNFLDWYLQKPGQSPQLLIYLGSNRASGVPDRFSGSGSGTDFTLKISRVEADDVGVYYCMQSLQTPWTFGHGTKVEIKR
modifications: PBD-MC conjugated to cysteine residues of the reduced IgG (sites not given); PBD-MC (pyrrolobenzodiazepine dimer with maleimide) conjugated to cysteine residues of the reduced IgG
IC50 (read off the curve), % survival of CHP134 cells, ADC alone [2]: 0.01 nM
killing of IMR5 cells (cell viability, 4 days) [1]: 5 pM

Kd [3]: 4.49 nM
Kd [4]: 4.5 nM
B3: m906 Fab (Fab, V domains shown)
VH: EVQLVQSGAEVKKPGSSVKVSCKASGGTFTGYYMHWVRQAPGQGLEWMGWINPNSGGTNYAQKFQGRVTMTRDTSISTAYMELSRLRSDDTAVYYCARDLSSGYSGYFDYWGQGTLVTVSS
VL: DVVMTQSPLSLPVTPGEPASISCRSSQSLLHSNGYNFLDWYLQKPGQSPQLLIYLGSNRASGVPDRFSGSGSGTDFTLKISRVEADDVGVYYCMQSLQTPWTFGHGTKVEIKR
